From US20110165156A1

How the values were obtained:
Assay in all cases: cell-based or functional assay
[1] = biological target: CSF-1R of cynomolgous monocytes (cynomolgous)
[2] = biological target: human mutant CSF-1R L301S Y969F, on cells (human) (UniProt P07333)
[3] = biological target: human wildtype CSF-1R (wt CSF-1R), full-length, on cells (human) (UniProt P07333)

Substance | % inhibition (of survival) = (100% - % survival) [1] [%] | % survival (cynomolgous monocytes, 5 µg/ml antibody) [1] [%] | Mutant CSF-1R IC30 (cell viability, 3D culture, CellTiterGlo) [2] [µg/mL] | Mutant CSF-1R IC50 (cell viability, 3D culture, CellTiterGlo) [2] [µg/mL] | wtCSF-1R IC30 (cell viability, 3D culture, CellTiterGlo) [3] [µg/mL] | wtCSF-1R IC50 (cell viability, 3D culture, CellTiterGlo) [3] [µg/mL] | % inhibition at 20 µg/ml, mutant CSF-1R cells [2] [%]
Anti CSF-1R SC 2-4A5 (Santa Cruz Biotechnology, US) (antibody) | 69 | 31 | 2.56 | 10 | 16.6 | 10 | –
goat polyclonal anti-CSF-1R antibody ab10676 (abcam) | – | – | > 20 | – | 14.2 | – | 0
